The source of these data is patent US10961297 (SANFORD BURNHAM PREBYS MEDICAL DISCOVERY INSTITUTE, dated 2021).

Residue numbers refer to the chain shown, from its start. Numbers in names are those of the source.

In test [1] the target is human BTLA-Fc (human) (UniProt Q7Z6A9). Description: SPR, human BTLA-Fc immobilised, Fc fusion as analyte, monovalent (1:1) analysis. (SPR reads the build-up and loss of mass on a sensor chip optically.)
For test [2] the target is unchanged. Description: SPR, human BTLA-Fc immobilised, Fc fusion as analyte, monovalent analysis.
For test [3] the target is unchanged. Nature of the test: SPR, human BTLA-Fc immobilised, Fc fusion as analyte, bivalent analysis.
Test [4] deals with T1, human HVEM T82P mutant on 293T cells (human, UniProt Q92956 39-283).
T1 construct: also called Thr^82
T1 sequence: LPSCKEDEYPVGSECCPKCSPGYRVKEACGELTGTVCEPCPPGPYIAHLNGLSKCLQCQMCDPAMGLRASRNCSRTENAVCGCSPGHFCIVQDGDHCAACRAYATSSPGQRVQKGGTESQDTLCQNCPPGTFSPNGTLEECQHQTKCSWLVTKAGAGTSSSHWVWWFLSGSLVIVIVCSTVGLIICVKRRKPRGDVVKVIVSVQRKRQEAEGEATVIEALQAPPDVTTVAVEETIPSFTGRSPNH
Description: flow cytometry, LIGHT on 293T cells with mutant HVEM. Background: Flow cytometry measures light scatter and fluorescence of single cells or particles in a stream.

Test [5] deals with T2, human HVEM G60D mutant on 293T cells (human, UniProt Q92956 39-283).
T2 construct: also called Gly^60
T2 sequence: T1 sequence with G22D, P44T
The test is described as above.

The target in test [6] is T3, human HVEM G72D mutant on 293T cells (human, UniProt Q92956 39-283).
T3 construct: also called Gly^72
T3 sequence: T1 sequence with G34D, P44T
Description: flow cytometry, CD160-Fc on 293T cells with mutant HVEM.

In test [7] the target is T4, human HVEM A102P mutant on 293T cells (human, UniProt Q92956 39-283).
T4 construct: also called Ala^102
T4 sequence: T1 sequence with P44T, A64P
The test is described as above.

For test [8], the target named is T5, human HVEM R109W mutant on 293T cells (human, UniProt Q92956 39-283).
T5 construct: also called Arg^109
T5 sequence: T1 sequence with P44T, R71W
The description is as above.

The target in test [9] is T1, human HVEM T82P mutant on 293T cells. The description is as above.
Test [10] has as its target T6, human HVEM Y61C mutant on 293T cells (human, UniProt Q92956 39-283).
T6 construct: also called Tyr^61
T6 sequence: T1 sequence with Y23C, P44T
The test is described as above.

In test [11] the target is T7, human HVEM P59S mutant on 293T cells (human, UniProt Q92956 39-283).
T7 construct: also called Pro^59
T7 sequence: T1 sequence with P21S, P44T
The description is as above.

Test [12] addresses T2, human HVEM G60D mutant on 293T cells. Described as above.
Test [13] deals with T8, human BTLA R42D mutant on EL4 cells (human, UniProt Q7Z6A9 31-289).
T8 construct: whole, on cells; also called Arg42
Description: flow cytometry, EL4 cells transduced with mutant human BTLA, HVEM-Fc then anti-human Fc [panel B].

For test [14], the target named is T9, human BTLA P59A mutant on EL4 cells (human, UniProt Q7Z6A9 31-289).
T9 construct: whole, on cells; also called Pro59
Described as above.

In test [15] the target is T10, human BTLA Q37A mutant on EL4 cells (human, UniProt Q7Z6A9 31-289).
T10 construct: whole, on cells; also called Gln37
The description is as above.

In test [16] the target is T11, human BTLA H127D mutant on EL4 cells (human, UniProt Q7Z6A9 31-289).
T11 construct: whole, on cells; also called His127
The test is described as above.

The target in test [17] is T12, BTLA (form in the assay not stated) (UniProt Q7Z6A9 31-157).
T12 sequence: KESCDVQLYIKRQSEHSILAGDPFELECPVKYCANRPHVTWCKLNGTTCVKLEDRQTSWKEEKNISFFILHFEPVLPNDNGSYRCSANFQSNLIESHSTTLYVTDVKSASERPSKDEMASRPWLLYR
Nature of the test: not told.

For test [18], the target named is T13, wild-type human BTLA on cells (human, UniProt Q7Z6A9 31-289).
T13 construct: whole, on cells
Description: co-expression on 293T cells, loss of staining by Fc ligands in trans.

Sequence of human BTLA-Fc (human) (Q7Z6A9 26-150 limits assumed): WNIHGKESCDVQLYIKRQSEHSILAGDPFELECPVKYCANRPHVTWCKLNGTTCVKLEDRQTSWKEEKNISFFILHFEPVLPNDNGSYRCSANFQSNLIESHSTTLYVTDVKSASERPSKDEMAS

For orientation: Kd means the constant that tells how readily two partners part at equilibrium. A low value points to a tighter complex. What is called koff is a measure of how fast the partners let go of each other. Lower therefore signals a long-lived complex. As a reminder, the kon is the rate constant with which the complex forms. Read a high kon as faster complex formation. Consider “human HVEM-Fc (from UniProt Q92956 39-184) (Fc fusion)”, for which the Kd in test [1] was determined as 177 nM. Moreover, in [2], the off-rate constant (koff) amounted to 0.0066 s⁻¹ and the kon came to 37400 M⁻¹ s⁻¹. In addition, in test [3], the ka1 was 15300 M⁻¹ s⁻¹, the ka2 came out at 0.0573 M⁻¹ s⁻¹, the kd1 amounted to 0.00902 s⁻¹ and the kd2 came out at 2.05 s⁻¹.

The molecule human CMV UL144-Fc (Fc fusion) came in with a dissociation constant Kd in test [1] of 295 nM. In [2], the koff came out at 0.00476 s⁻¹ and the kon came to 16100 M⁻¹ s⁻¹. In [3], the ka1 was 7810 M⁻¹ s⁻¹, the ka2 was 1.39e-05, the kd1 is 0.0051 s⁻¹ and the kd2 was 0.00289 s⁻¹.

B1: LIGHT (ligand)
chain: DGPAGSWEQLIQERRSHEVNPAAHLTGANSSLTGSGGPLLWETQLGLAFLRGLSYHDGALVVTKAGYYYIYSKVQLGGVGCPLGLASTITHGLYKRTPRYPEELELLVSQQSPCGRATSSSRVWWDSSFLGGVVHLEAGEKVVVRVLDERLVRLRDGTRSYFGAFMV
notes: also called TNFSF ligand LIGHT
As for B1, the binding result in [4] and in test [5] was “no binding” each time.

B2: CD160-Fc (Fc fusion)
chain: INITSSASQEGTRLNLICTVWHKKEEAEGFVVFLCKDRSGDCSPETSLKQLRLKRDPGIDGVGEISSQLMFTISQVTPLHSGTYQCCARSQKSGIRLQGHFFSILFTETGNYTVTGLKQRQHLEFSHNEGTLS
Turning to B2, the binding result in [6], in test [7], in test [8], in test [9], in test [10] and in [11] was “no binding” each time. In test [12], the binding result was “no binding”.

B3: human HVEM-Fc (Fc fusion)
chain: LPSCKEDEYPVGSECCPKCSPGYRVKEACGELTGTVCEPCPPGTYIAHLNGLSKCLQCQMCDPAMGLRASRNCSRTENAVCGCSPGHFCIVQDGDHCAACRAYATSSPGQRVQKGGTESQDTLCQNCPPGTFSPNGTLEECQHQTK
notes: also called parental HVEM-Fc; not shown: human IgG Fc region
As for B3, the binding result in [13], in test [14], in [15] and in test [16] was “no binding” in each case.

B4: HVEM-RTWA (HVEM-Fc mutein with S58R, G68T, L70W and L90A) (Fc fusion)
chain: B3 chain with S20R, G30T, L32W, L52A
notes: also called RTWA mutant; HVEM^RTWA Fc; not shown: human IgG Fc region
For B4, in [17], the “fold enhancement of BTLA affinity (against HVEM-RA)” value came out at 10 fold.

B5: wild-type human HVEM on 293T cells (receptor)
chain: T1 sequence with P44T
notes: also called TNFRSF14
On to B5, for which, in test [18], the binding result is “binds”.
